Measurements from patent publication US20190010493A1 (published 2019).

B1: His-RSK3 phosphorylated by ERK (enzyme)
chain: MDLSMKKFAVRRFFSVYLRRKSRSKSSSLSRLEEEGVVKEIDISHHVKEGFEKADPSQFELLKVLGQGSYGKVFLVRKVKGSDAGQLYAMKVLKKATLKVRDRVRSKMERDILAEVNHPFIVKLHYAFQTEGKLYLILDFLRGGDLFTRLSKEVMFTEEDVKFYLAELALALDHLHSLGIIYRDLKPENILLDEEGHIKITDFGLSKEAIDHDKRAYSFCGTIEYMAPEVVNRRGHTQSADWWSFGVLMFEMLTGSLPFQGKDRKETMALILKAKLGMPQFLSGEAQSLLRALFKRNPCNRLGAGIDGVEEIKRHPFFVTIDWNTLYRKEIKPPFKPAVGRPEDTFHFDPEFTARTPTDSPGVPPSANAHHLFRGFSFVASSLIQEPSQQDLHKVPVHPIVQQLHGNNIHFTDGYEIKEDIGVGSYSVCKRCVHKATDTEYAVKIIDKSKRDPSEEIEILLRYGQHPNIITLKDVYDDGKFVYLVMELMRGGELLDRILRQRYFSEREASDVLCTITKTMDYLHSQGVVHRDLKPSNILYRDESGSPESIRVCDFGFAKQLRAGNGLLMTPCYTANFVAPEVLKRQGYDAACDIWSLGILLYTMLAGFTPFANGPDDTPEEILARIGSGKYALSGGNWDSISDAAKDVVSKMLHVDPHQRLTAMQVLKHPWVVNREYLSPNQLSRQDVHLVKGAMAATYFALNRTPQAPRLEPVLSSNLAQRRGMKRLTSTRL
modifications: phosphorylated in vitro with ERK2; sites on this protein not stated here (S360 is named as the ERK site of HA-RSK3 in paragraph 123)
notes: also called Phospho-His-RSK3 (ERK2); not shown: His tag
B2: His-RSK3 phosphorylated by both ERK and PDK1 (enzyme)
chain: MDLSMKKFAVRRFFSVYLRRKSRSKSSSLSRLEEEGVVKEIDISHHVKEGFEKADPSQFELLKVLGQGSYGKVFLVRKVKGSDAGQLYAMKVLKKATLKVRDRVRSKMERDILAEVNHPFIVKLHYAFQTEGKLYLILDFLRGGDLFTRLSKEVMFTEEDVKFYLAELALALDHLHSLGIIYRDLKPENILLDEEGHIKITDFGLSKEAIDHDKRAYSFCGTIEYMAPEVVNRRGHTQSADWWSFGVLMFEMLTGSLPFQGKDRKETMALILKAKLGMPQFLSGEAQSLLRALFKRNPCNRLGAGIDGVEEIKRHPFFVTIDWNTLYRKEIKPPFKPAVGRPEDTFHFDPEFTARTPTDSPGVPPSANAHHLFRGFSFVASSLIQEPSQQDLHKVPVHPIVQQLHGNNIHFTDGYEIKEDIGVGSYSVCKRCVHKATDTEYAVKIIDKSKRDPSEEIEILLRYGQHPNIITLKDVYDDGKFVYLVMELMRGGELLDRILRQRYFSEREASDVLCTITKTMDYLHSQGVVHRDLKPSNILYRDESGSPESIRVCDFGFAKQLRAGNGLLMTPCYTANFVAPEVLKRQGYDAACDIWSLGILLYTMLAGFTPFANGPDDTPEEILARIGSGKYALSGGNWDSISDAAKDVVSKMLHVDPHQRLTAMQVLKHPWVVNREYLSPNQLSRQDVHLVKGAMAATYFALNRTPQAPRLEPVLSSNLAQRRGMKRLTSTRL
modifications: phosphorylated in vitro with ERK2 and PDK1; sites on this protein not stated here (S360 ERK site and S218 PDK1 site are named for HA-RSK3 in paragraph 123)
notes: also called Phospho-His-RSK3 (ERK2 and PDK1); not shown: His tag
B3: mAKAP RSK binding domain (RBD), mAKAP residues 1694 to 1833 (other, not shown: small tags and cut ends)
chain: ELSLCSEDIVLHKNKIPESNASFRKRLNRSVADESDVNVSMIVNVSCTSACTDDEDDSDLLSSSTLTLTEEELCLKDEDDDSSIATDDEIYEESNLMSGLDYIKNELQTWIRPKLSLTREKKRSGVTDEIKVNKDGGGNE
notes: also called mAKAP RBD

What was measured:
[1] = biological target: T1, full-length mAKAPβ protein with an internal deletion of residues 1257 to 1886 (rat) (UniProt Q9WVC7); assay: co-immunoprecipitation, heterologous cells
T1 sequence: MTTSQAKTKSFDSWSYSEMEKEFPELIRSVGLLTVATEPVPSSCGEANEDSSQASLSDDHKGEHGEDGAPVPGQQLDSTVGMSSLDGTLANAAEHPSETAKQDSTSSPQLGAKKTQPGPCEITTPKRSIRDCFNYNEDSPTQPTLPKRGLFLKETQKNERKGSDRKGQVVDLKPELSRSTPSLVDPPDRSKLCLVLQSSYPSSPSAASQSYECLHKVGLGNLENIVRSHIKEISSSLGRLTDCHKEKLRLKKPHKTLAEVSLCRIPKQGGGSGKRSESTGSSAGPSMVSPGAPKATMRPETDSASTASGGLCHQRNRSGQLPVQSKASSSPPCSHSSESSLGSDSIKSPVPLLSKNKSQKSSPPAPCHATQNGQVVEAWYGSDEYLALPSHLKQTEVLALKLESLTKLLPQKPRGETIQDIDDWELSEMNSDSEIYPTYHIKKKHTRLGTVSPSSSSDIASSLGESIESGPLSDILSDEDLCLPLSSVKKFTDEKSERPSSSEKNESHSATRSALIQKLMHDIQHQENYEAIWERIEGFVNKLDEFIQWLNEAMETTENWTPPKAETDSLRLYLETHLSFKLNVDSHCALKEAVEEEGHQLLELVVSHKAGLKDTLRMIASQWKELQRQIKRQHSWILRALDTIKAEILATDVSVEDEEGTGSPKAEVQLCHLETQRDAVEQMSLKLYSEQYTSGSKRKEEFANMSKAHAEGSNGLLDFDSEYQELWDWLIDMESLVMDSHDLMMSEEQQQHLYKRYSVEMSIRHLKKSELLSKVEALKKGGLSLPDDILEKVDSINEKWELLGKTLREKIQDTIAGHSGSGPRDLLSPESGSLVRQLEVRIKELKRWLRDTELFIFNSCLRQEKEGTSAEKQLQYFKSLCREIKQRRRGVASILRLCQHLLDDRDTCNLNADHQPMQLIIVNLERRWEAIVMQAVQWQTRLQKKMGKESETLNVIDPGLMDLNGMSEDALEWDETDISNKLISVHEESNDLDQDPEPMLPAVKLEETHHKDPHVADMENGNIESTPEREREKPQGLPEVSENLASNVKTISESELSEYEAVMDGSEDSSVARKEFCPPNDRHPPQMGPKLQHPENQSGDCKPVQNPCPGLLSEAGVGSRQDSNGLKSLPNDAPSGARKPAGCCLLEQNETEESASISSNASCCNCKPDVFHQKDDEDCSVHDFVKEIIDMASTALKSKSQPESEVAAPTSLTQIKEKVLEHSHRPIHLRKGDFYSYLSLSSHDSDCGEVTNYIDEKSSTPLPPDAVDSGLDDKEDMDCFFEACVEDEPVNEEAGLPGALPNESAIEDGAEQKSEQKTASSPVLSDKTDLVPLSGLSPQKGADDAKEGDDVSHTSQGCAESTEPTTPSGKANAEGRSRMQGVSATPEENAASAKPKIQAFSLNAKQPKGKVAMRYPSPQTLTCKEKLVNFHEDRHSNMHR

[2] = biological target: T2, bacterially expressed His-tagged mAKAP 1286 to 1833 (rat, UniProt Q9WVC7 1286-1833); assay: SPR (BIAcore T100), His-mAKAP 1286-1833 immobilised, phospho-His-RSK3 analyte
T2 construct: Covalently immobilised by amine coupling on a CM5 chip, 200 resonance units; not shown: His tag (pET30-based vector)
T2 sequence: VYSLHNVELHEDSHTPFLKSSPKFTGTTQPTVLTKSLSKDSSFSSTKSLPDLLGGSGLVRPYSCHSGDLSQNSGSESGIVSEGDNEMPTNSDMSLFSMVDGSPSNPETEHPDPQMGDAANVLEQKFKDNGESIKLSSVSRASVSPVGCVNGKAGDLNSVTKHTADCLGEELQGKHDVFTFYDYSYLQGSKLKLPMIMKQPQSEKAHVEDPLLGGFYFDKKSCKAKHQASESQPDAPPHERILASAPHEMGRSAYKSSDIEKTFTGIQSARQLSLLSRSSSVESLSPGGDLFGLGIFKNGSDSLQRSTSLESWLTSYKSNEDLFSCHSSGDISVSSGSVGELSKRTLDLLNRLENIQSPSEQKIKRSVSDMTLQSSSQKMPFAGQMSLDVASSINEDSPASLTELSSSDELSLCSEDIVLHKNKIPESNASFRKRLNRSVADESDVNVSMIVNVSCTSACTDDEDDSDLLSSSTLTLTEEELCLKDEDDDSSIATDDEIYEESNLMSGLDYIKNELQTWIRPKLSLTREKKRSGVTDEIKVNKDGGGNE
Protocol: The inventors next tested whether mAKAP-RSK3 binding is direct (FIG. 7G of U.S. Pat. No. 9,132,174). […] The binding was direct and of high affinity (nanomolar KD). The inventors previously reported that once activated, RSK3 binds mAKAPα less well in cells (Michele 2005).
Surface Plasmon Resonance: SPR analysis was performed using a BIAcore T100. […] (Biacore amine coupling kit) to the surface of a sensor chip (BIAcore type CM5). His-RSK3 analytes (6.25-200 nmol/L) in HBS buffer (10 mmol/L Hepes, pH 7.4, 150 mmol/L NaCl, and 0.005% Surfactant P20) were injected at a flow rate of 30 μL/min for 5 minutes, followed by buffer alone for another 5 minutes. Sensorgrams were processed by BIAcore T100 evaluation software.

[3] = biological target: T3, N-terminally truncated RSK3 mutant (HA-RSK3 DN30) (human, UniProt Q15349 31-733); assay: co-immunoprecipitation in heterologous cells
T3 construct: The range 31-733 is inferred from the label 'DN30'; not shown: hemagglutinin (HA) tag
Excerpt: To address this hypothesis, the inventors defined the mAKAP domains responsible for RSK3 binding. HA-tagged RSK3 was co-expressed in heterologous cells with myc-tagged mAKAPβ fragments and coimmunoprecipitated using a myc-tag antibody (FIGS. 7A and 7B of U.S. Pat. No. 9,132,174). […] As shown, the unique N-terminal domain of RSK3 bound full-length mAKAPβ (FIG. 4D of U.S. Pat. No. 9,132,174). The mAKAP RBD also bound HA-RSK3 1 to 42 (FIG. 7E of U.S. Pat. No. 9,132,174), but not to the N-terminally truncated RSK3 mutant (HA-RSK3 DN30) or the HA-tagged full-length RSK2 (FIG. 7F of U.S. Pat. No. 9,132,174).
Immunoprecipitations: HEK293 and COS-7 cells were transfected with Lipofectamine 2000 (Invitrogen) or Polyethylenimine “Max” (Polysciences). Cells (including myocytes) were lysed in buffer (20 mmol/L HEPES, pH 7.4, 150 mmol/L NaCl, 5 mmol/L EDTA, 0.5% Triton, 50 mmol/L NaF, 1 mmol/L sodium orthovanadate, 1 mmol/L DTT, and protease inhibitors). After centrifugation at 10,000×g for 10 minutes at 4° C., the clarified extracts were used for immunoprecipitation using appropriate antibodies (10 μg purified antibody or 1-5 μL whole serum) and 20 μL protein G sepharose (Millipore, Fastflow) for 3 hours to overnight at 4° C. The beads were washed 3-5 times with lysis buffer, and the immunoprecipitated proteins were eluted with 1× Laemmli buffer for western blotting. […]

| Molecule | fold decrease of binding affinity against unphosphorylated RSK3 [2] | further results |
| --- | --- | --- |
| HA-tagged RSK3 (type 3 p90 ribosomal S6 kinase) (from UniProt Q15349 1-733) (enzyme) |  | reduction of binding against full-length mAKAPβ [1]: > 85% |
| B1 | 5 fold |  |
| B2 | 8 fold |  |
| B3 |  | binding result [3]: no binding |
